Measured values taken from patent US20090099029.

Molecular target: T1, Bovine, dephosphorylated, Myelin Basic Protein (MBP), P02687
T1 chain: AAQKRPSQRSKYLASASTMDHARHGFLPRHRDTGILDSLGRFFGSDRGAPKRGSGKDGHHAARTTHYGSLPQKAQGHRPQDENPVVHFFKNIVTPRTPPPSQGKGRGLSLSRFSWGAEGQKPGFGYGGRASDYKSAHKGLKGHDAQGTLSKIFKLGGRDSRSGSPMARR

Row | Protein | MBP Kinase Activity
1 | CSNK2A1(CK2alpha1) (protein) MSGPVPSRARVYTDVNTHRPREYWDYESHVVEWGNQDDYQLVRKLGRGKYSEVFEAINITNNEKVVVKILKPVKKKKIKREIKILENLRGGPNIITLADIVKDPVSRTPALVFEHVNNTDFKQLYQTLTDYDIRFYMYEILKALDYCHSMGIMHRDVKPHNVMIDHEHRKLRLIDWGLAEFYHPGQEYNVRVASRYFKGPELLVDYQMYDYSLDMWSLGCMLASMIFRKEPFFHGHDNYDQLVRIAKVLGTEDLYDYIDKYNIELDPRFNDILGRHSRKRWERFVHSENQHLVSPEALDFLDKLLRYDHQSRLTAREAMEHPYFYTVVKDQARMGSSSMPGGSTPVSSANMMSGISSVPTPSPLGPLAGSPVIAAANPLGMPVPAAAGAQQ | Strong
2 | CSNK2A2 (protein) MPGPAAGSRARVYAEVNSLRSREYWDYEAHVPSWGNQDDYQLVRKLGRGKYSEVFEAINITNNERVVVKILKPVKKKKIKREVKILENLRGGTNIIKLIDTVKDPVSKTPALVFEYINNTDFKQLYQILTDFDIRFYMYELLKALDYCHSKGIMHRDVKPHNVMIDHQQKKLRLIDWGLAEFYHPAQEYNVRVASRYFKGPELLVDYQMYDYSLDMWSLGCMLASMIFRREPFFHGQDNYDQLVRIAKVLGTEELYGYLKKYHIDLDPHFNDILGQHSRKRWENFIHSENRHLVSPEALDLLDKLLRYDHQQRLTAKEAMEHPYFYPVVKEQSQPCADNAVLSSGLTAAR | Negative
3 | GRK4 (protein) MELENIVANSLLLKARQGGYGKKSGRSKKWKEILTLPPVSQCSELRHSIEKDYSSLCDKQPIGRRLFRQFCDTKPTLKRHIEFLDAVAEYEVADDEDRSDCGLSILDRFFNDKLAAPLPEIPPDVVTECRLGLKEENPSKKAFEECTRVAHNYLRGEPFEEYQESSYFSQFLQWKWLERQPVTKNTFRHYRVLGKGGFGEVCACQVRATGKMYACKKLQKKRIKKRKGEAMALNEKRILEKVQSRFVVSLAYAYETKDALCLVLTIMNGGDLKFHIYNLGNPGFDEQRAVFYAAELCCGLEDLQRERIVYRDLKPENILLDDRGHIRISDLGLATEIPEGQRVRGRVGTVGYMAPEVVNNEKYTFSPDWWGLGCLIYEMIQGHSPFKKYKEKVKWEEVDQRIKNDTEEYSEKFSEDAKSICRMLLTKNPSKRLGCRGEGAAGVKQHPVFKDINFRRLEANMLEPPFCPDPHAVYCKDVLDIEQFSVVKGIYLDTADEDFYARFATGCVSIPWQNEMIESGCFKDINKSESEEALPLDLDKNIHTPVSRPNRGFFYRLFRRGGCLTMVPSEKEVEPKQC | Negative
4 | EPHA3 (protein) RFCGYKSKHGADEKRLHFGNGHLKLPGLRTYVDPHTYEDPTQAVHEFAKELDATNISIDKVVGAGEFGEVCSGRLKLPSKKEISVAIKTLKVGYTEKQRRDFLGEASIMGQFDHPNIIRLEGVVTKSKPVMIVTEYMENGSLDSFLRKHDAQFTVIQLVGMLRGIASGMKYLSDMGYVHRDLAARNILINSNLVCKVSDFGLSRVLEDDPEAAYTTRGGKIPIRWTSPEAIAYRKFTSASDVWSYGIVLWEVMSYGERPYWEMSNQDVIKAVDEGYRLPPPMDCPAALYQLMLDCWQKDRNNRPKFEQIVSILDKLIRNPGSLKIITSAAARPSNLLLDQSNVDITTFRTTGDWLNGVWTAHCKEIFTGVEYSSCDTIAKISTDDMKKVGVTVVGPQKKIISSIKALETQSKNGPVPV | Strong
5 | GRK6 (protein) MELENIVANTVLLKAREGGGGNRKGKSKKWRQMLQFPHISQCEELRLSLERDYHSLCERQPIGRLLFREFCATRPELSRCVAFLDGVAEYEVTPDDKRKACGRQLTQNFLSHTGPDLIPEVPRQLVTNCTQRLEQGPCKDLFQELTRLTHEYLSVAPFADYLDSIYFNRFLQWKWLERQPVTKNTFRQYRVLGKGGFGEVCACQVRATGKMYACKKLEKKRIKKRKGEAMALNEKQILEKVNSRFVVSLAYAYETKDALCLVLTLMNGGDLKFHIYHMGQAGFPEARAVFYAAEICCGLEDLHRERIVYRDLKPENILLDDHGHIRISDLGLAVHVPEGQTIKGRVGTVGYMAPEVVKNERYTFSPDWWALGCLLYEMIAGQSPFQQRKKKIKREEVERLVKEVPEEYSERFSPQARSLCSQLLCKDPAERLGCRGGSAREVKEHPLFKKLNFKRLGAGMLEPPFKPDPQAIYCKDVLDIEQFSTVKGVELEPTDQDFYQKFATGSVPIPWQNEMVETECFQELNVFGLDGSVPPDLDWKGQPPAPPKKGLLQRLFSRQDCCGNCSDSEEELPTRL | Negative
6 | DYRK3 (protein) MGGTARGPGRKDAGPPGAGLPPQQRRLGDGVYDTFMMIDETKCPPCSNVLCNPSEPPPPRRLNMTTEQFTGDHTQHFLDGGEMKVEQLFQEFGNRKSNTIQSDGISDSEKCSPTVSQGKSSDCLNTVKSNSSSKAPKVVPLTPEQALKQYKHHLTAYEKLEIINYPEIYFVGPNAKKRHGVIGGPNNGGYDDADGAYIHVPRDHLAYRYEVLKIIGKGSFGQVARVYDHKLRQYVALKMVRNEKRFHRQAAEEIRILEHLKKQDKTGSMNVIHMLESFTFRNHVCMAFELLSIDLYELIKKNKFQGFSVQLVRKFAQSILQSLDALHKNKIIHCDLKPENILLKHHGRSSTKVIDFGSSCFEYQKLYTYIQSRFYRAPEIILGSRYSTPIDIWSFGCILAELLTGQPLFPGEDEGDQLACMMELLGMPPPKLLEQSKRAKYFINSKGIPRYCSVTTQADGRVVLVGGRSRRGKKRGPPGSKDWGTALKGCDDYLFIEFLKRCLHWDPSARLTPAQALRHPWISKSVPRPLTTIDKVSGKRVVNPASAFQGLGSKLPPVVGIANKLKANLMSETNGSIPLCSVLPKLIS | Negative
7 | DAPK2 (protein) MFQASMRSPNMEPFKQQKVEDFYDIGEELGSGQFAIVKKCREKSTGLEYAAKFIKKRQSRASRRGVSREEIEREVSILRQVLHHNVITLHDVYENRTDVVLILELVSGGELFDFLAQKESLSEEEATSFIKQILDGVNYLHTKKIAHFDLKPENIMLLDKNIPIPHIKLIDFGLAHEIEDGVEFKNIFGTPEFVAPEIVNYEPLGLEADMWSIGVITYILLSGASPFLGDTKQETLANITAVSYDFDEEFFSQTSELAKDFIRKLLVKETRKRLTIQEALRHPWITPVDNQQAMVRRESVVNLENFRKQYVRRRWKLSFSIVSLCNHLTRSLMKKVHLRPDEDLRNCESDTEEDIARRKALHPRRRSSTS | Negative
8 | CSNK1E(CK1eps) (protein) MELRVGNKYRLGRKIGSGSFGDIYLGANIASGEEVAIKLECVKTKHPQLHIESKFYKMMQGGVGIPSIKWCGAEGDYNVMVMELLGPSLEDLFNFCSRKFSLKTVLLLADQMISRIEYIHSKNFIHRDVKPDNFLMGLGKKGNLVYIIDFGLAKKYRDARTHQHIPYRENKNLTGTARYASINTHLGIEQSRRDDLESLGYVLMYFNLGSLPWQGLKAATKRQKYERISEKKMSTPIEVLCKGYPSEFSTYLNFCRSLRFDDKPDYSYLRQLFRNLFHRQGFSYDYVFDWNMLKFGAARNPEDVDRERREHEREERMGQLRGSATRALPPGPPTGATANRLRSAAEPVASTPASRIQPAGNTSPRAISRVDRERKVSMRLHRGAPANVSSSDLTGRQEVSRIPASQTSVPFDHLGK | Negative
9 | CSNK1D(CK1delta) (protein) MELRVGNRYRLGRKIGSGSFGDIYLGTDIAAGEEVAIKLECVKTKHPQLHIESKIYKMMQGGVGIPTIRWCGAEGDYNVMVMELLGPSLEDLFNFCSRKFSLKTVLLLADQMISRIEYIHSKNFIHRDVKPDNFLMGLGKKGNLVYIIDFGLAKKYRDARTHQHIPYRENKNLTGTARYASINTHLGIEQSRRDDLESLGYVLMYFNLGSLPWQGLKAATKRQKYERISEKKMSTPIEVLCKGYPSEFATYLNFCRSLRFDDKPDYSYLRQLFRNLFHRQGFSYDYVFDWNMLKFGASRAADDAERERRDREERLRHSRNPATRGLPSTASGRLRGTQEVAPPTPLTPTSHTANTSPRPVSGMERERKVSMRLHRGAPVNISSSDLTGRQDTSRMSTSQNSIPFEHHGK | Negative
10 | DMPK (protein) MSAEVRLRRLQQLVLDPGFLGLEPLLDLLLGVHQELGASELAQDKYVADFLQWAEPIVVRLKEVRLQRDDFEILKVIGRGAFSEVAVVKMKQTGQVYAMKIMNKWDMLKRGEVSCFREERDVLVNGDRRWITQLHFAFQDENYLYLVMEYYVGGDLLTLLSKFGERIPAEMARFYLAEIVMAIDSVHRLGYVHRDIKPDNILLDRCGHIRLADFGSCLKLRADGTVRSLVAVGTPDYLSPEILQAVGGGPGTGSYGPECDWWALGVFAYEMFYGQTPFYADSTAETYGKIVHYKEHLSLPLVDEGVPEEARDFIQRLLCPPETRLGRGGAGDFRTHPFFFGLDWDGLRDSVPPFTPDFEGATDTCNFDLVEDGLTAMVSGGGETLSDIREGAPLGVHLPFVGYSYSCMALRDSEVPGPTPMELEAEQLLEPHVQAPSLEPSVSPQDETAEVAVPAAVPAAEAEAEVTLRELQEALEEEVLTRQSLSREMEAIRTDNQNFASQLREAEARNRDLEAHVRQLQERMELLQAEGATAVTGVPSPRATDPPSHLDGPPAVAVGQCPLVGPGPMHRRHLLLPARVPRPGLSEALSLLLFAVVLSRAAALGCIGLVAHAGQLTAVWRRPGAARAP | Negative
11 | EPHA4 (protein) SRRRSKYSKAKQEADEEKHLNQGVRTYVDPFTYEDPNQAVREFAKEIDASCIKIEKVIGVGEFGEVCSGRLKVPGKREICVAIKTLKAGYTDKQRRDFLSEASIMGQFDHPNIIHLEGVVTKCKPVMIITEYMENGSLDAFLRKNDGRFTVIQLVGMLRGIGSGMKYLSDMSYVHRDLAARNILVNSNLVCKVSDFGMSRVLEDDPEAAYTTRGGKIPIRWTAPEAIAYRKFTSASDVWSYGIVMWEVMSYGERPYWDMSNQDVIKAIEEGYRLPPPMDCPIALHQLMLDCWQKERSDRPKFGQIVNMLDKLIRNPNSLKRTGTESSRPNTALLDPSSPEFSAVVSVGDWLQAIKMDRYKDNFTAAGYTTLEAVVHVNQEDLARIGITAITHQNKILSSVQAMRTQMQQMHGRMVPV | Strong
12 | DAPK3(ZIPK) (protein) MSTFRQEDVEDHYEMGEELGSGQFAIVRKCRQKGTGKEYAAKFIKKRRLSSSRRGVSREEIEREVNILREIRHPNIITLHDIFENKTDVVLILELVSGGELFDFLAEKESLTEDEATQFLKQILDGVHYLHSKRIAHFDLKPENIMLLDKNVPNPRIKLIDFGIAHKIEAGNEFKNIFGTPEFVAPEIVNYEPLGLEADMWSIGVITYILLSGASPFLGETKQETLTNISAVNYDFDEEYFSNTSELAKDFIRRLLVKDPKRRMTIAQSLEHSWIKAIRRRNVRGEDSGRKPERRRLKTTRLKEYTIKSHSSLPPNNSYADFERFSKVLEEAAAAEEGLRELQRSRRLCHEDVEALAAIYEEKEAWYREESDSLGQDLRRLRQELLKTEALKRQAQEEAKGALLGTSGLKRRFSRLENRYEALAKQVASEMRFVQDLVRALEQEKLQGVECGLR | Negative
